Test results published in patent US20230213527A1, “COMPOSITIONS AND METHODS FOR POLYPEPTIDE ANALYSIS” (Quantum-Si Incorporated, priority 2021, published 2023).

What was measured:
[1] = molecular target: … (SEQ ID NO: 823), state with N-terminal leucine (…); assay: single-molecule on-chip sequencing with PS691, PS610 and PS961
[2] = molecular target: RLp… (SEQ ID NO: 824), state with N-terminal leucine (Lp…); assay: as above

- RS mean PD [1]: 2.45 s
- RS mean PD [2]: 3.4 s
B1: PS961 (designed binder)
chain: MPTAASATESAIEDTPAPARPEVDGRTKPKRQPRYHVVLWDDDDHTYQYVVVMLRSLFGHPPSRGYRMAKEMDTQGRVIVLTTTREHAELKRDQIHAFGRDRLLARSKGSMKASIEAEE
